Experimental data: the supplement of paper PMC9112550, “Optimization of the antimicrobial peptide Bac7 by deep mutational scanning” (BMC Biology, 2022)

What follows are sequences tested on Escherichia coli TOP10 (assay: shrunken log2 fold change of peptide-encoding DNA abundance (4.5 h post-induction vs induction); higher = less antimicrobial activity (less host growth inhibition)). Details: time post-induction: 4.5 h; library: site-saturation at positions 5, 18, 19, 20.
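Note: peptides expressed intracellularly from a pBAD plasmid library in pooled LB shake-flask culture, induced with 0.3% L-arabinose, DNA abundance read by NGS, three biological replicates, DESeq2 with apeglm shrinkage.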

Sequence | shrunken log2 fold change
RRIRKRPPRLPRPRPRPAGLPRP | 0.126
RRIRARPPRLPRPRPRPTQHPRP | 0.698
RRIRTRPPRLPRPRPRPSHVPRP | 2.39
RRIRGRPPRLPRPRPRPDYCPRP | 0.0958
RRIRYRPPRLPRPRPRPKAMPRP | -0.0317
RRIRWRPPRLPRPRPRPTLEPRP | 0.608
RRIRIRPPRLPRPRPRPWSSPRP | -0.1
RRIRIRPPRLPRPRPRPLMSPRP | -0.372
RRIRRRPPRLPRPRPRPDVWPRP | 0.611
RRIRWRPPRLPRPRPRPVVCPRP | 0.301
RRIRPRPPRLPRPRPRPFIIPRP | -0.854
RRIRQRPPRLPRPRPRPWRVPRP | -0.049
RRIRERPPRLPRPRPRPCAAPRP | -0.244
RRIRYRPPRLPRPRPRPGCSPRP | -0.214
RRIRARPPRLPRPRPRPHVRPRP | -0.0112
RRIRTRPPRLPRPRPRPKYAPRP | -0.495
RRIRPRPPRLPRPRPRPWALPRP | -0.0895
RRIRMRPPRLPRPRPRPEPEPRP | 2.64
RRIRQRPPRLPRPRPRPCTNPRP | -0.359
RRIRPRPPRLPRPRPRPMKLPRP | -0.0874
RRIRERPPRLPRPRPRPTKWPRP | 0.155
RRIRQRPPRLPRPRPRPEGSPRP | -0.00794
RRIRSRPPRLPRPRPRPQALPRP | 0.0266
RRIRCRPPRLPRPRPRPGMMPRP | -0.389
RRIRYRPPRLPRPRPRPEIFPRP | -0.159

Sequence | shrunken log2 fold change
RRIRQRPPRLPRPRPRPHQDPRP | -0.327
RRIRRRPPRLPRPRPRPRPWPRP | 0.737
RRIRERPPRLPRPRPRPQDMPRP | -0.492
RRIRIRPPRLPRPRPRPMCNPRP | -0.0808
RRIRKRPPRLPRPRPRPGWQPRP | 0.347
RRIRMRPPRLPRPRPRPMTFPRP | -0.512
RRIRSRPPRLPRPRPRPQVIPRP | 0.00733
RRIRPRPPRLPRPRPRPAYHPRP | -0.129
RRIRCRPPRLPRPRPRPQHPPRP | -0.132
RRIRQRPPRLPRPRPRPVGIPRP | -0.0511
RRIRHRPPRLPRPRPRPSVCPRP | -0.294
RRIRCRPPRLPRPRPRPEETPRP | 0.143
RRIRWRPPRLPRPRPRPWLGPRP | 0.00929
RRIRARPPRLPRPRPRPIAEPRP | 0.42
RRIRERPPRLPRPRPRPNTSPRP | 0.37
RRIRNRPPRLPRPRPRPDAFPRP | -0.0836
RRIRCRPPRLPRPRPRPTFDPRP | -0.164
RRIRCRPPRLPRPRPRPNIMPRP | -0.896
RRIRHRPPRLPRPRPRPELTPRP | 0.054
RRIRKRPPRLPRPRPRPCCDPRP | 0.217
RRIRKRPPRLPRPRPRPCHSPRP | -0.0177
RRIRYRPPRLPRPRPRPYMWPRP | -0.43
RRIRMRPPRLPRPRPRPDPWPRP | 0.336
RRIRWRPPRLPRPRPRPNKVPRP | -0.129
RRIRDRPPRLPRPRPRPPGTPRP | 0.435

Sequence | shrunken log2 fold change
RRIRDRPPRLPRPRPRPECTPRP | 1.05
RRIRQRPPRLPRPRPRPPRLPRP | 0.287
RRIRDRPPRLPRPRPRPGAFPRP | 0.357
RRIRIRPPRLPRPRPRPLLCPRP | -0.462
RRIRQRPPRLPRPRPRPRADPRP | 0.156
RRIRNRPPRLPRPRPRPFCDPRP | -0.133
RRIRWRPPRLPRPRPRPFGKPRP | -0.578
RRIRFRPPRLPRPRPRPPNPPRP | 0.412
RRIRKRPPRLPRPRPRPWQSPRP | 0.0203
RRIRSRPPRLPRPRPRPVHEPRP | -0.185
RRIRGRPPRLPRPRPRPRWYPRP | 0.271
RRIRARPPRLPRPRPRPSHAPRP | 0.333
RRIRSRPPRLPRPRPRPAYCPRP | 0.149
RRIRTRPPRLPRPRPRPLPVPRP | -0.103
RRIRPRPPRLPRPRPRPWMIPRP | -0.334
RRIRLRPPRLPRPRPRPWVNPRP | -0.271
RRIRHRPPRLPRPRPRPCVIPRP | -0.0839
RRIRCRPPRLPRPRPRPGKHPRP | -0.423
RRIRHRPPRLPRPRPRPQGQPRP | 0.043
RRIRQRPPRLPRPRPRPNQNPRP | -0.24
RRIRFRPPRLPRPRPRPHDNPRP | -0.392
RRIRHRPPRLPRPRPRPLSEPRP | 0.203
RRIRCRPPRLPRPRPRPGTCPRP | -0.143
RRIRLRPPRLPRPRPRPHHLPRP | -0.24
RRIRDRPPRLPRPRPRPHFRPRP | -0.121
